# Target: purified human fibrinogen (human) (UniProt P02671)
# UniProt P02671, sequence (P02671 36-866, chain 1 of 3): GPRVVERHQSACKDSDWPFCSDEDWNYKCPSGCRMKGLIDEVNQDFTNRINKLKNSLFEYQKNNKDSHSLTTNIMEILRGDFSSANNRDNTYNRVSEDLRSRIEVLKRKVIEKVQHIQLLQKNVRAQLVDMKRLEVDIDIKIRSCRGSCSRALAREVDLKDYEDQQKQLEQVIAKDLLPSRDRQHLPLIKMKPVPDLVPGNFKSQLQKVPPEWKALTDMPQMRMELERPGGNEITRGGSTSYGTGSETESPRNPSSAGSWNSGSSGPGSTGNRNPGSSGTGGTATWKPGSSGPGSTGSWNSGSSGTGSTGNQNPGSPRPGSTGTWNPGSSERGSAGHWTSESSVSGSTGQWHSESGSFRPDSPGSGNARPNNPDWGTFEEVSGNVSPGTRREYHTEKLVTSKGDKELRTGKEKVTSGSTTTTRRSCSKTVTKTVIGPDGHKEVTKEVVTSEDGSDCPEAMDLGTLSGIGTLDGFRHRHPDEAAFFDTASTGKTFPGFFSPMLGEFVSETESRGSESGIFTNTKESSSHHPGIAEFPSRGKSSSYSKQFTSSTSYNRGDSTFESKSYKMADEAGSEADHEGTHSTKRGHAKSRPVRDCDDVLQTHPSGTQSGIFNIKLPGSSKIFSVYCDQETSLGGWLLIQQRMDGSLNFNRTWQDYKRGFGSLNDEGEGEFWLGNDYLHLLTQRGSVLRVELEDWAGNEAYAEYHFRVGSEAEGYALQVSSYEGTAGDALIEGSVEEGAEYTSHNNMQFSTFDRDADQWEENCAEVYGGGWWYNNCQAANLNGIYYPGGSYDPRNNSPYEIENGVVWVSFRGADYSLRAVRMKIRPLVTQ
# UniProt P02671, sequence (P02675 45-491, chain 2 of 3, further chain): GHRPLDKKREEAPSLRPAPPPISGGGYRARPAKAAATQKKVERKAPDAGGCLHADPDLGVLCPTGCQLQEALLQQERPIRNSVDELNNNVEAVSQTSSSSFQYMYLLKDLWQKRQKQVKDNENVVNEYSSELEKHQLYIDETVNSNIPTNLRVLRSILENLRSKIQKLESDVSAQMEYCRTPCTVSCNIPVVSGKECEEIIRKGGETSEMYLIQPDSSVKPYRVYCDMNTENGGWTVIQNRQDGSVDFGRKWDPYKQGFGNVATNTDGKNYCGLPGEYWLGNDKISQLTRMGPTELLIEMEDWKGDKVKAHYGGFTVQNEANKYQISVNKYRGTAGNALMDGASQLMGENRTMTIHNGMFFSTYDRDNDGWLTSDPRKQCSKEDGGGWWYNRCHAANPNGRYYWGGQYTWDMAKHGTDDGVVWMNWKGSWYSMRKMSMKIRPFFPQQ
# UniProt P02671, sequence (P02679 27-453, chain 3 of 3, further chain): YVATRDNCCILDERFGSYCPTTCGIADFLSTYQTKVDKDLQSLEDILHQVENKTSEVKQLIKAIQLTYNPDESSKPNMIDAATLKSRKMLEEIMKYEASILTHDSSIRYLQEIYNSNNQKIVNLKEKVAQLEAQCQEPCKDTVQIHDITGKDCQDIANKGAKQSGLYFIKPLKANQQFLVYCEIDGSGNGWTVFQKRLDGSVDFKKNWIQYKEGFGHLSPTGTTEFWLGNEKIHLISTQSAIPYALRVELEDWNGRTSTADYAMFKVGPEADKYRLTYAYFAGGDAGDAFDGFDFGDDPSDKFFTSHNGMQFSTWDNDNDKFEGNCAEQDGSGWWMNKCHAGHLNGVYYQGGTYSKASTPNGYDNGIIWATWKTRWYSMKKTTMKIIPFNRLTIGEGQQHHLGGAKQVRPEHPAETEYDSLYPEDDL
substance,measurement,value
"serine-rich repeat glycoprotein Srr1 of Streptococcus agalactiae (native, surface expressed) (natural protein)","adherence of GBS strain COH31 to immobilized human fibrinogen (0.1 µM per well), percent of inoculum bound (% of inoculum)",16
